± gives the standard deviation of the averaged measurements.
Tested on: Saccharomyces cerevisiae
Assay: protein stability index of tFT-peptide fusion (C-terminal peptide) (PSI (0-1 scale)); higher = more stable (slower turnover)
Conditions: genetic background: wild type; temperature: 30 C
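Note: PSI is a weighted mean of sequencing reads over stability bins, variants kept only with over 10 reads, mCherry proximal and sfGFP distal, peptide attached via GGGS linker.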

| Sequence | protein stability index |
| --- | --- |
| PSSPSPLRPPSP | 0.666 ± 0.096 |
| PSSSDHDTRQKK | 0.708 ± 0.058 |
| PSSSFFFLSSYL | 0.706 ± 0.043 |
| PSTHPPTLPRPC | 0.712 ± 0.024 |
| PSTILLRYRPSV | 0.825 ± 0.16 |
| PSTLPLRLPRMF | 0.644 ± 0.057 |
| PSTPFAPPSATY | 0.685 ± 0.014 |
| PSWLLFGVHGGW | 0.71 ± 0.056 |
| PTGQSSVESGAG | 0.693 ± 0.088 |
| PTGRGRSAYLVL | 0.6875 ± 0.0058 |
| PTHCWSGLSGKG | 0.703 ± 0.016 |
| PTHPHLTLTETP | 0.687 ± 0.017 |
| PTIMYIRKTEER | 0.692 ± 0.043 |
| PTIRKDPLGFLR | 0.707 ± 0.0084 |
| PTKKRQHSDRRK | 0.644 ± 0.013 |
| PTLFSLLLRAFL | 0.623 ± 0.13 |
| PTLSPRSPRFAS | 0.755 ± 0.035 |
| PTNISEKVGAKS | 0.671 ± 0.02 |
| PTPHPHTGSLEG | 0.651 ± 0.011 |
| PTPHTTHPQNNT | 0.729 ± 0.0062 |
| PTPLPRISLTSV | 0.667 ± 0.025 |
| PTPPLLPPAPSP | 0.707 ± 0.048 |
| PTPPPPPSPFAL | 0.804 ± 0.15 |
| PTPPSPTPLPAT | 0.679 ± 0.043 |
| PTPSDRLPPPSH | 0.712 ± 0.0098 |
| PTPVAHSLSLRI | 0.637 ± 0.033 |

| Sequence | protein stability index |
| --- | --- |
| PTRFLPVPSLFS | 0.679 ± 0.048 |
| PTSSPAPPLFAF | 0.67 ± 0.028 |
| PTTAVNLPQGGT | 0.68 ± 0.063 |
| PTVPYRLVLSTV | 0.511 ± 0.056 |
| PVALYFIREFSP | 0.699 ± 0.013 |
| PVAVSQPNGPKD | 0.633 ± 0.031 |
| PVCIRSLGTALF | 0.675 ± 0.0086 |
| PVCLHPPPSHTH | 0.737 ± 0.061 |
| PVDFQSQGECEL | 0.695 ± 0.0089 |
| PVFNDDTIIRNP | 0.761 ± 0.032 |
| PVFPPPAPTPPT | 0.647 ± 0.046 |
| PVINPSCIVMMW | 0.65 ± 0.04 |
| PVPPPPPPFSLP | 0.727 ± 0.032 |
| PVPPPPPPPLPP | 0.6 ± 0.03 |
| PVPPRSPPRLPF | 0.6673 ± 0.002 |
| PVPPTPPHPGPL | 0.617 ± 0.059 |
| PVPRCGLPLSLP | 0.685 ± 0.1 |
| PVSALHLSLSCP | 0.698 ± 0.028 |
| PVSFPFPISSLS | 0.701 ± 0.062 |
| PVSPRLLLRFTL | 0.691 ± 0.14 |
| PVSVSSFFLSRF | 0.767 ± 0.21 |
| PVVRISRLSFFA | 0.674 ± 0.007 |
| PWRPTNPADRSV | 0.61 ± 0.1 |
| PWWSRPAASVGV | 0.659 ± 0.047 |
| PYCVTLTLPFSS | 0.7134 ± 0.0047 |
| PYEFRLISRNTR | 0.669 ± 0.095 |

| Sequence | protein stability index |
| --- | --- |
| PYFPLRPPSLPI | 0.6747 ± 0.0011 |
| PYFSLFSRRSLN | 0.539 ± 0.02 |
| PYFVGSGLVVLC | 0.5639 ± 0.0055 |
| PYHARPDRSLSG | 0.693 ± 0.035 |
| PYIFLPLGRAGN | 0.723 ± 0.076 |
| PYPVTLSRPTPT | 0.611 ± 0.15 |
| PYRPYLLPGSLA | 0.632 ± 0.099 |
| QAANPWQRPFGW | 0.689 ± 0.087 |
| QAGARGRRGVRG | 0.678 ± 0.016 |
| QAGGEYGLKVRW | 0.805 ± 0.033 |
| QAGKPLYVEMVS | 0.609 ± 0.021 |
| QCLTVPRSAHLP | 0.607 ± 0.05 |
| QDLLNVSSFTRS | 0.727 ± 0.017 |
| QEQITKETDLTH | 0.663 ± 0.013 |
| QEREAGVTALIR | 0.707 ± 0.04 |
| QFEEFKRGFEVA | 0.722 ± 0.024 |
| QFQRTLCGKRWV | 0.685 ± 0.043 |
| QFQVWGAPGLKR | 0.711 ± 0.12 |
| QFVSALVCLSVG | 0.5534 ± 0.0015 |
| QGCAWWGGGAGG | 0.684 ± 0.038 |
| QGEKDFRMGSIK | 0.632 ± 0.015 |
| QGELHRDVYIVI | 0.6793 ± 0.0013 |
| QGKPSKWRSGSI | 0.646 ± 0.048 |
| QGRIVSVILLSL | 0.557 ± 0.023 |
| QHVDRFVGVNRE | 0.715 ± 0.051 |
| QIESNLGYWGIG | 0.73819 ± 0.00032 |

| Sequence | protein stability index |
| --- | --- |
| QILPVLSKPTWI | 0.736 ± 0.057 |
| QIQNRVDYRIKL | 0.6353 ± 0.0031 |
| QITYKTLSGINM | 0.703 ± 0.065 |
| QKEETGGLGGGK | 0.6609 ± 0.0025 |
| QKERENKHTEIE | 0.645 ± 0.21 |
| QKINKRPTIRQI | 0.603 ± 0.063 |
| QKKELQKQKIAK | 0.683 ± 0.015 |
| QKKKEKKQKEGD | 0.678 ± 0.009 |
| QKKKKKNKNDQK | 0.686 ± 0.056 |
| QKKKQTDHTNGV | 0.684 ± 0.03 |
| QKKTKRGLTYTS | 0.67 ± 0.043 |
| QKPKKKNTTEKQ | 0.689 ± 0.021 |
| QKRKMIEKEKEK | 0.768 ± 0.098 |
| QKWKIIRACVGC | 0.606 ± 0.049 |
| QLHTTENHHRRL | 0.792 ± 0.032 |
| QLPGTVVRYTLF | 0.6408 ± 0.0041 |
| QMTCADGVDCLL | 0.589 ± 0.018 |
| QPAVKIGYAMAL | 0.644 ± 0.048 |
| QPITEALHDSCT | 0.675 ± 0.098 |
| QPNDIEIYTLLT | 0.652 ± 0.05 |
| QPPLPPPLPGSP | 0.741 ± 0.085 |
| QPRLRPPLPSPP | 0.638 ± 0.069 |
| QPSRQTIPWDTV | 0.738 ± 0.037 |

From the supplement of paper PMC10724198
